Our source for the stoichiometry N values is article doi:10.1101/2023.12.18.571367.

The assay addresses NRC4 (NLR required for cell death 4) with the mutations L9E and D478V. As to the kind of experiment: cryo-EM structure.

Where “and” joins values, the source holds several entries; their conditions need not be identical. Equal entries are not always repeated.

The term stoichiometry N denotes the number of molecules, sites or subunits per partner or assembly. For the substance “NRC4 (NLR required for cell death 4) with the mutations L9E and D478V (natural protein)”, the stoichiometry N was 6 and 12.
